Source: US20210198366A1 (NGM BIOPHARMACEUTICALS, published 2021)

T1: human B7-H7 expressed on the cell surface (human, UniProt Q9UM44 23-414)
T1 construct: also called hB7-H7; HHLA2
T1 sequence: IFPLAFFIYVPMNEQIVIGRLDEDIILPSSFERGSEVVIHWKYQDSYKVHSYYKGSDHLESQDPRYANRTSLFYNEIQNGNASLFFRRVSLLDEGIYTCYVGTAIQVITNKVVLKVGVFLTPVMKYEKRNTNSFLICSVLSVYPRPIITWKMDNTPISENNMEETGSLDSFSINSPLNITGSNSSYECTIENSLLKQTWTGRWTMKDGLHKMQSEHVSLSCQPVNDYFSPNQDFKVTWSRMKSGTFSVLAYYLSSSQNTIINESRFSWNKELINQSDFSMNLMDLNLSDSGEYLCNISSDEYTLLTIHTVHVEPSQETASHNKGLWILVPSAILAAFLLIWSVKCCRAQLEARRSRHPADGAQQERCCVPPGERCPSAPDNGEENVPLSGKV


Key:
[1] = biological target: T2, human KIR3DL3 expressed on the cell surface (human, UniProt Q8N743 26-410); experiment: cell-based fluorescence assay (CellInsight): soluble B7-H7-Fc titrated on HEK-293T cells transfected with KIR3DL3, Alexa Fluor 488 anti-human Fc detection; soluble B7-H7-Fc on KIR3DL3-transfected cells
T2 construct: also called cells expressing human KIR3DL3
Protocol: (§1) The molecule CD28H has previously been identified as a receptor of B7-H7 (Zhu et al., 2013, Nature Communications, ncomms3043; Zhu et al. refer to B7-H7 as “B7-H5”). Studies by the inventors have identified KIR3DL3 as a second receptor for B7-H7. HEK-293T cells were transiently transfected with a KIR3DL3 construct. 40,000 cells were aliquoted into each well of a 384-well plate and were transfected with 200 ng of plasmid DNA encoding KIR3DL3 using Lipofectamine™ 2000 (ThermoFisher Scientific). After 48 hours, soluble B7-H7-Fc (serially diluted from 10 to 0.16 pg/ml) was added to the wells and plates were incubated from one hour at room temperature. An Alexa Fluor® 488-labeled anti-human Fc secondary antibody was added to the wells and plates were incubated for one hour at room temperature. Cells were washed with HBSS and fixed for 15 minutes with 7.4% formalin in PBS. Cells were washed with PBS and the fluorescence signals were detected using a CellInsight™ platform (ThermoFisher Scientific). A similar experiment was conducted with cells transiently transfected with a B7-H7 construct and soluble biotinylated KIR3DF3 ECD. An Alexa Fluor® 488-labeled streptavidin was used for detection.

[2] = biological target: T1, human B7-H7 expressed on the cell …; experiment: cell-based fluorescence assay (CellInsight): soluble biotinylated KIR3DL3 ECD on cells transfected with B7-H7, Alexa Fluor 488 streptavidin detection; soluble biotinylated KIR3DL3 ECD on B7-H7-transfected cells
Protocol: as §1

Kd [1] [nM]	Kd [2] [nM]	Binder
15		soluble human B7-H7-Fc fusion protein (extracellular region of human B7-H7, aa 23-344, and a human Fc sequence) (Fc fusion, not shown: a dimerising Fc or GST, also called hB7-H7-Fc; soluble B7-H7) IFPLAFFIYVPMNEQIVIGRLDEDIILPSSFERGSEVVIHWKYQDSYKVHSYYKGSDHLESQDPRYANRTSLFYNEIQNGNASLFFRRVSLLDEGIYTCYVGTAIQVITNKVVLKVGVFLTPVMKYEKRNTNSFLICSVLSVYPRPIITWKMDNTPISENNMEETGSLDSFSINSPLNITGSNSSYECTIENSLLKQTWTGRWTMKDGLHKMQSEHVSLSCQPVNDYFSPNQDFKVTWSRMKSGTFSVLAYYLSSSQNTIINESRFSWNKELINQSDFSMNLMDLNLSDSGEYLCNISSDEYTLLTIHTVHVEPSQETASHN
	192	soluble biotinylated KIR3DL3 ECD (receptor, biotinylated (site not stated), also called soluble biotinylated KIR3DF3 ECD (so in the source); soluble KIR3DL3) QDKPFLSAWPGTVVSEGQHVTLQCRSRLGFNEFSLSKEDGMPVPELYNRIFRNSFLMGPVTPAHAGTYRCCSSHPHSPTGWSAPSNPVVIMVTGVHRKPSLLAHPGPLVKSGETVILQCWSDVRFERFLLHREGITEDPLRLVGQLHDAGSQVNYSMGPMTPALAGTYRCFGSVTHLPYELSAPSDPLDIVVVGLYGKPSLSAQPGPTVQAGENVTLSCSSRSLFDIYHLSREAEAGELRLTAVLRVNGTFQANFPLGPVTHGGNYRCFGSFRALPHAWSDPSDPLPVSVTGNSRHL
